Data from patent US20230087785A1, “Leucine-Rich Repeat Kinase 2 Allosteric Modulators” (VIB VZW, priority 2020, published 2023).

Assays:
[1] = biological target: T1, Roc domain (Homo sapiens, UniProt Q5S007); test: Analytical size exclusion chromatography; format: binding; conditions: data not shown
T1 construct: A construct of the Roc domain spanning the residues 1329-1520 was cloned in the pET-28a vector providing an N-terminal His6-tag; His6 (N); made in house; host or cells: E. coli BL21(DE3)
T1 sequence (Q5S007 1329-1520): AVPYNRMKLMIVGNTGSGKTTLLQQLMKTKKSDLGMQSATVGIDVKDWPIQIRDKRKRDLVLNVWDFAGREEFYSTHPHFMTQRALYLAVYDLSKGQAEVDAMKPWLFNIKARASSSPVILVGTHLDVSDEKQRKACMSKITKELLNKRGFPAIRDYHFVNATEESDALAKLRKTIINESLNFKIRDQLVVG

[2] = biological target: T2, LRRK2 (Homo sapiens, UniProt Q5S007, M2397T/R50H); test: Determination of kinase inhibition mechanism (Michaelis-Menten curves at varying ATP); format: biochemical; conditions: for mechanism of inhibition vis-a-vis ATP as substrate: Lineweaver-Burk plot and global fit; for α-value: global fit, mixed inhibition model, 10 μM AQT0615, varying ATP
T2 construct: Full-length human LRRK2 was expressed and purified based on previously developed protocols; SF tag (FLAG-tag + Twin-Strep-tag); made in house; host or cells: HEK 293T
Method: FIGS. 11A-11C, Dose-response curves (upper panels) for the inhibition of the in vitro LRRK2 kinase activity by the group1 Nbs: Nb1 (FIG. 11A), Nb6 (FIG. 11B) and Nb23 (FIG. 11C), where the Nb concentration was varied from 200 or 150 μM to 0.006 μM in a two-fold serial dilution. The two lower panels show the Michaelis-Menten curves obtained for LRRK2 at varying concentrations of ATP and a fixed (sub-saturating) concentration of peptide substrate (AQT0615), and at varying concentrations of Nb1 (FIG. 11A), Nb6 (FIG. 11B) and Nb23 (FIG. 11C), and the corresponding linearizations according to the Lineweaver-Burk method (double-reciprocal plot). The Nb concentrations used are indicated below the plots. Each datapoint reflects the average (±SD) of three independent measurements.
To further confirm this, we set out to determine the mechanism of inhibition (competitive vs. uncompetitive vs. mixed/non-competitive) of these three Nbs vis-h-vis ATP as substrate, using our peptide phosphorylation assays as output. To this end, full Michaelis-Menten curves were obtained at a fixed (probably sub-saturating) concentration of peptide substrate (10 μM) and varying concentrations of ATP (FIGS. 11A-11C). […] This confirms that these Nbs are not competing with ATP for binding and that they inhibit the reaction by binding on an allosteric site, which is in agreement with the ELISA and CL-MS epitope mapping data. […] For CA12618, fitting on the same model yields a Kic^app of 5±1 μM with an α-value of 1.6±0.4, corresponding a Kic^app of 5 μM and a Kic^app of […]. For the kinase domain-binding CA13612, the linearized curves intersect closer to the Y-axis indicating a mechanism which is more ATP-competitive like. […] Fitting on a mixed inhibition model for CA13612 gives a Kic^app of 9±1 μM with an α-value of 7.5±1.9, corresponding a Kic^app of 9 μM and a Kic^app of 66 μM.
To determine the mechanism of inhibition and apparent Ki (Ki^app) values of CA12610, CA12618, CA13612 the PhosphoSens® Protein Kinase Assay (AssayQuant Technologies Inc.) in combination with the AQT0615 peptide substrate was used. Full Michaelis-Menten curves (relative velocity versus [ATP]) in presence of different Nb concentrations were collected at 30° C. in a buffer consisting of 50 mM HEPES pH 7.5, 0.1% Brij-35, 50 mM NaCl, 10 mM MgCl2 and […], using a fixed concentration of AQT0615 (10 μM) and varying concentrations of ATP. The LRRK2 concentration was chosen such that initial rates (linear fluorescence versus time curves) were obtained, and LRRK2, ATP and the Nbs were preincubated at 4° C. for 30 min prior to starting the reaction by adding the peptide substrate. The Michaelis-Menten curves for the different Nb concentrations were globally fit on a mixed-inhibition model using GraphPad Prism, according to the equation:
(with Kic^app=Ki^app and Ki^app−a·Ki^app)
Additionally, as a diagnostic tool, Michaelis-Menten curves were linearized using the Lineweaver-Burk (double reciprocal) plot.

[3] = biological target: T3, mScarlet-LRRK2 (Homo sapiens, UniProt Q5S007, M2397T/R50H); test: Confocal microscopy of LRRK2 microtubule localization in HEK293 cells; format: cell-based; conditions: HEK293 cells co-transfected with mScarlet-LRRK2 and GFP-Nb, treated with 1 μM MLi-2
T3 construct: expressed in transfected cells; host or cells: HEK293
Text: HEK 293 cells were co-transfected with the indicated GFP-Nbs and mScarlet-LRRK2. […] Scale bar 5 μm.
FIG. 6. […] Scale bar 5 μm.
The binding of LRRK2 to microtubules subsequently reduces the kinesin—and dynein-mediated transport along microtubules.
Recent structural information has linked LRRK2 microtubule relocalization to the conformation of the kinase domain, with a closed conformation favoring LRRK2 binding to microtubules. As a consequence, the commonly used ATP-competitive type I LRRK2 inhibitors trigger this effect. In addition, it was shown before that the WD40 domain is indispensable for LRRK2-microtubule association.
A HEK293 cell line was cultured in complete media (high-glucose Dulbecco's modified Eagle's medium, 10% fetal bovine serum and Penicillin-Streptomycin-Glutamine (Gibco)). Cells were seeded on 8-well p-Slide(Ibidi) and transfected at a confluency of 50-70% with GFP-Nb and mScarlet-LRRK2 constructs, using JetPEI reagent (Polyplus transfection). […] Data acquisition was done with a ×100 oil-immersion objective with a Zeiss LSM800 confocal laser scanning microscope. Image analysis of z-scan was done using the Zeiss microscope software ZEN.

T2 sequence (Q5S007 whole entry R50H/M2397T): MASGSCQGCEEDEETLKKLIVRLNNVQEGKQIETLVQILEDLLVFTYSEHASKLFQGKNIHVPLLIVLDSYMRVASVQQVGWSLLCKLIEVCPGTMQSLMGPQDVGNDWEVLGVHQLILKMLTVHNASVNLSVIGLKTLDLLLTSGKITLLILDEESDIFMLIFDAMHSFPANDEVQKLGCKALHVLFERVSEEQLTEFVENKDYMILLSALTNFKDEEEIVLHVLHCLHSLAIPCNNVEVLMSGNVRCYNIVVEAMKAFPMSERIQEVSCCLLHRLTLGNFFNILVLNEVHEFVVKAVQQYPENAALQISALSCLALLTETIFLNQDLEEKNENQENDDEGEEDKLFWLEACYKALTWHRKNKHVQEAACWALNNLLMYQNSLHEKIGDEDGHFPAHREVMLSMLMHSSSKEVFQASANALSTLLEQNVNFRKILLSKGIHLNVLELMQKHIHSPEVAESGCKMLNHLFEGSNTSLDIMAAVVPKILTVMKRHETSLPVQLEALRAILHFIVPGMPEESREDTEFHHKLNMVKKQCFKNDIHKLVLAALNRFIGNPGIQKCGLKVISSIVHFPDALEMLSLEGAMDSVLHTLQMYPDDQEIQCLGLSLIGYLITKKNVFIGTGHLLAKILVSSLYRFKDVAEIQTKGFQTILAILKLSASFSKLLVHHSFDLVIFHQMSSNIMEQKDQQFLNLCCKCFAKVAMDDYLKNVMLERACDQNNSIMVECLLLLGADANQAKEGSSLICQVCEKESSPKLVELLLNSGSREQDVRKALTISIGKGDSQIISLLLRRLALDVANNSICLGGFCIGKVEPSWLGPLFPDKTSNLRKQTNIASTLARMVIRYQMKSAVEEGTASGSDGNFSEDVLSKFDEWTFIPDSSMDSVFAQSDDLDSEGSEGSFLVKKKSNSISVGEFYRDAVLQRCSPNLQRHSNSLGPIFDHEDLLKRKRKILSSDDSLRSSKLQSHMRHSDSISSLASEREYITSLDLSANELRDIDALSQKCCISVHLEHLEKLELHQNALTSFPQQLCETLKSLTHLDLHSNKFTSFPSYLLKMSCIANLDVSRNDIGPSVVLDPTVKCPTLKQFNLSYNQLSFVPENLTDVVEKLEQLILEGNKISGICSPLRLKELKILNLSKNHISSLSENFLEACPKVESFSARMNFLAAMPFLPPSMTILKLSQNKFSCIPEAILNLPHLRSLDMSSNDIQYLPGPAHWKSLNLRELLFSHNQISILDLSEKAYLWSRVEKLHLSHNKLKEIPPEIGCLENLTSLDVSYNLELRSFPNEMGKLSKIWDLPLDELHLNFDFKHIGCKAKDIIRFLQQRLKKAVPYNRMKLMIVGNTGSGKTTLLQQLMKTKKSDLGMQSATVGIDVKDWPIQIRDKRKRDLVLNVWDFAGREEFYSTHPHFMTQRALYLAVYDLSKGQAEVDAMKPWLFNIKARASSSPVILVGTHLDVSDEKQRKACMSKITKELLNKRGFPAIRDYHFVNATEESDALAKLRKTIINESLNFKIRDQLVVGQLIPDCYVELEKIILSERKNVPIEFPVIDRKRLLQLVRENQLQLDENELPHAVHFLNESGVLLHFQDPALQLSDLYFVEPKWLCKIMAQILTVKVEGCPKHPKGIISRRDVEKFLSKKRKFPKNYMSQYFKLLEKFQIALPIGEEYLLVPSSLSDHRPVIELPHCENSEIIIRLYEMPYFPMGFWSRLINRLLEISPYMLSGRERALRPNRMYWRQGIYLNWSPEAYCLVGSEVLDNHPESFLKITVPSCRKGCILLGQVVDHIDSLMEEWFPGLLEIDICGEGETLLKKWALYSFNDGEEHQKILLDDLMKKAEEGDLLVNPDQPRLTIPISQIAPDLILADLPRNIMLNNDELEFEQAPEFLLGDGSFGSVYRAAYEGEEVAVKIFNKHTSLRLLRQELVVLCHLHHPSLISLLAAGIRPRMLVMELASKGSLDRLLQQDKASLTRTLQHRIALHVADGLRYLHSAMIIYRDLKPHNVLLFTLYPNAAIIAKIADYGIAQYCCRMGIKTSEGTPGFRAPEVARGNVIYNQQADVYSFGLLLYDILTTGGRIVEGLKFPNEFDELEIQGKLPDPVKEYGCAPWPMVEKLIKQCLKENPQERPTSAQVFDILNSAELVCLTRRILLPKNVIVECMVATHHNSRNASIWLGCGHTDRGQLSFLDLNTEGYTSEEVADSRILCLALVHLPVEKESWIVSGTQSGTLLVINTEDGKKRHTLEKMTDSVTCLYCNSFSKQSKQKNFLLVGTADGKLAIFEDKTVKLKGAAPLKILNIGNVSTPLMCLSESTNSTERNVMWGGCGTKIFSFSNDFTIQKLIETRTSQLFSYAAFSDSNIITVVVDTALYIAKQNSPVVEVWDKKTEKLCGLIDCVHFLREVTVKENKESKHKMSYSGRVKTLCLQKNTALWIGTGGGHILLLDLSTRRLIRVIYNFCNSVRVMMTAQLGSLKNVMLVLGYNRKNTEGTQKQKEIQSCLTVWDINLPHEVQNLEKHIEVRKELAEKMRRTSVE
T3 sequence (Q5S007 whole entry R50H/M2397T): as above

Molecule | binding to Roc [1] | mechanism of inhibition vis-a-vis ATP as substrate [2] | α-value [2] | effect on MLi-2-induced recruitment of LRRK2 to microtubules [3]
Nb42: LRRK2-specific Nanobody, SEQ ID NO: 6 (protein, Nanobody CA14259) VHH: MAQVQLVESGGGLVQAGGSLRLSCAASGDVNYAVGWFRQAPRKEREFVAAINWRGDNTDYTDSVKGRFTISRDNAKNTVYLQMNSLKPEDTAVYYCAAKSAPYWYSDIAPDYWGQGTQVTVSS | binding to Roc was confirmed |  |  | 
Nb6: LRRK2-specific Nanobody, SEQ ID NO: 2 (protein, Nanobody CA12618) VHH: MAQVQLVESGGGLVQAGGSLRLSCAASGSIFSPTAMGWYRQAPGKERELVAGITSGGYTNYRNFARGRFTISRDNAKKTVYLQMNSLNPEDTAVYYCNTLTISWSWGQGTQVTVSS |  | mixed-type inhibition | 1.6±0.4 | 
Nb22: LRRK2-specific Nanobody, SEQ ID NO: 9 (protein, Nanobody CA13611) VHH: MAQVQLVESGGGLVQAGGSLRLSCAASGRTFSSYTMGWFRQAPGKEREFVAAIRWSGGSTYYADSVKGRFTISRDNAKNTVYLQMNSLKPEDTAVYYCAASDRGGFIATSGGWMDYWGKGTQVTVSS |  |  |  | rescuing effect is most prominent
Nb23: LRRK2-specific Nanobody, SEQ ID NO: 3 (protein, Nanobody CA13612) VHH: MAQVQLVESGGGLVQAGGSLRLSCAASGRTFSRYTMGWFRQAPGKDREFVARITTSGAVTTYADSAKGRFTISRDNAKNTVYLQMNTLKPEDTAVYYCAAGQGQLSSQSRFVDYWGQGTQVTVSS |  | mixed-inhibition mechanism | 7.5±1.9 | rescuing effect is most prominent
Nb1: LRRK2-specific Nanobody, SEQ ID NO: 1 (protein, Nanobody CA12610) VHH: MAQVQLVESGGGLVQAGGSLRLSCVASGRIFSGNAMGWYRQAPGRQRELVAGITNGGYTNYRQFVKGRFTISRDNAKRTVYLQMNSLKPEDTAVYYCNALDREARQVDYWGQGTQVTVSS |  | mixed-type inhibition | 1.8±0.5 | 
